According to US20140018302A1 (SALK INSTITUTE FOR BIOLOGICAL STUDIES INTELLECTUAL PROPERTY …, published 2014):
Positions of bridges follow the written chain, without caps; N, C: chain ends. Non-standard residues stand in square brackets, D forms with d. No end group written: not given here. *: point of attachment. FITC = O=C1OC2(c3ccc(O)cc3Oc3cc(O)ccc32)c2ccc(NC(=S)*)cc21; R8 = C=CCCCCCC[C@@](C)(N)C(=O)O; S5 = C=CCCC[C@](C)(N)C(=O)O

Legend:
[1] = target: T1, recombinant full-length HDMX (UniProt O15151 1-490); test: fluorescence polarization, 25 nM FITC-peptide
T1 construct: mature; Full-length protein after TEV cleavage of the tags; also called HDM4
T1 sequence (looked up): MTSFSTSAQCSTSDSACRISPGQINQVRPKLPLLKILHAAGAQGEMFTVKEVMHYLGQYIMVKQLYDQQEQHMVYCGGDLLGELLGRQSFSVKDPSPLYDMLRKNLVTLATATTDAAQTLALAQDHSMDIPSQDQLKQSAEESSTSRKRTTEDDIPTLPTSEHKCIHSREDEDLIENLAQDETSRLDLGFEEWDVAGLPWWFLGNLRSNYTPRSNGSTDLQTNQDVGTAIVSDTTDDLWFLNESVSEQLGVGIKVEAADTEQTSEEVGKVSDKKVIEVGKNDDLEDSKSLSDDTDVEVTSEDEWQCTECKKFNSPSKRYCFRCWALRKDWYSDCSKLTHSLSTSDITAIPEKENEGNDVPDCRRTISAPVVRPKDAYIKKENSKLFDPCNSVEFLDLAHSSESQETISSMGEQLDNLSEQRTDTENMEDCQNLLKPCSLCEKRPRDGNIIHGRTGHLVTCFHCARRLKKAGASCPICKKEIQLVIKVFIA
Method: Fluorescence polarization was then measured at equilibrium on a SpectraMax M5 microplate reader (Molecular Devices).

[2] = target: T2, native HDMX (intracellular, in SJSA-X, JEG-3 and MCF-7 cells) (UniProt O15151 1-490); test: anti-FITC pull-down from SJSA-X cells, HDMX western
T2 construct: mature; Cellular protein in co-immunoprecipitation experiments; In SJSA-X cells it is overexpressed by engineering; also called intracellular HDMX
T2 sequence (looked up): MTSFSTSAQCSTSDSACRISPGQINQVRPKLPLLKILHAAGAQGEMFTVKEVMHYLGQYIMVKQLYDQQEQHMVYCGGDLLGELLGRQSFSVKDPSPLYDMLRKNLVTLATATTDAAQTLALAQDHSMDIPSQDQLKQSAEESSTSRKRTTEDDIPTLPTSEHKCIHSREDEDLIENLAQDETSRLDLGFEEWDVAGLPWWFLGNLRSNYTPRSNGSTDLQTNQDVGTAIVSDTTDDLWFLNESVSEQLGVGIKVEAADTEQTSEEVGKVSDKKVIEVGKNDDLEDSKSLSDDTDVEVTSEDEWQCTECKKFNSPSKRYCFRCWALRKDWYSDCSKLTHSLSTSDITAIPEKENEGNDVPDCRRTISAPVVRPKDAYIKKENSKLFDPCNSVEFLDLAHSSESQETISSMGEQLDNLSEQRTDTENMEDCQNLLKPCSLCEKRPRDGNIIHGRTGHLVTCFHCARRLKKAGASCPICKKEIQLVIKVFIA

[3] = target: T3, native HDM2 (intracellular, in SJSA-X cells) (UniProt Q00987 1-491, limits assumed); test: anti-FITC pull-down from SJSA-X cells, HDM2 western
T3 construct: mature; Cellular protein in the anti-FITC pull-down; also called intracellular HDM2
T3 sequence (Q00987 whole entry): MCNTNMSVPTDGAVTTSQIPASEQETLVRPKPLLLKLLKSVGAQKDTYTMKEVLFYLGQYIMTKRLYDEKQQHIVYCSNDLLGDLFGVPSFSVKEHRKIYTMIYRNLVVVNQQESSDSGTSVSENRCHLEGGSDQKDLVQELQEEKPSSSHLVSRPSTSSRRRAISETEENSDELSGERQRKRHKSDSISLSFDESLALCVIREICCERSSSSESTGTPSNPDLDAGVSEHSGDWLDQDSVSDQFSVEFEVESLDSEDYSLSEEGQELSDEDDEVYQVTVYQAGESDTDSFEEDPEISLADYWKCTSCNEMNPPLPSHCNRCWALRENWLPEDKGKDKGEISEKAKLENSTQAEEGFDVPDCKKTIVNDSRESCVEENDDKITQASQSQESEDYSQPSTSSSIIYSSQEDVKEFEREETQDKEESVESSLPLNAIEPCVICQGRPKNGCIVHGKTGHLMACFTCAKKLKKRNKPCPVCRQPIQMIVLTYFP

B1: FITC-WT-p53 14-29 (peptide)
peptide: {FITC}-LSQETFSDLWKLLPEN
notes: Unstapled wild-type peptide, FITC-labeled in the FP assay; also called wild type p53 peptide
- binding result [1]: no binding (tested: 25 pM-100 nM protein)

B2: SAH-p53-8F19A (peptide)
peptide: QSQQTA[R8]NLWRLL[S5]QN
modifications: staple 7-14; not fully specified (N-terminus, C-terminus); also: N-terminal FITC in binding assays
notes: also called FITC-SAH-p53-8F19A
- binding result [1]: no binding (tested: 25 pM-100 nM protein)
- binding result [2]: no binding (tested: 15 uM peptide on cells)
- binding result [3]: no binding (tested: 15 uM peptide on cells)
